# Data as given in article PMC5531659, “Small molecule perturbation of the CAND1-Cullin1-ubiquitin cycle stabilizes p53 and triggers Epstein-Barr virus reactivation” (PLoS Pathogens, 2017).
# B1: Cullin-associated and neddylation-dissociated 1 (CAND1) (natural protein, human (endogenous in Mutu I and 293T), UniProt Q86VP6 1-1230, looked up)
# chain: MASASYHISNLLEKMTSSDKDFRFMATNDLMTELQKDSIKLDDDSERKVVKMILKLLEDKNGEVQNLAVKCLGPLVSKVKEYQVETIVDTLCTNMLSDKEQLRDISSIGLKTVIGELPPASSGSALAANVCKKITGRLTSAIAKQEDVSVQLEALDIMADMLSRQGGLLVNFHPSILTCLLPQLTSPRLAVRKRTIIALGHLVMSCGNIVFVDLIEHLLSELSKNDSMSTTRTYIQCIAAISRQAGHRIGEYLEKIIPLVVKFCNVDDDELREYCIQAFESFVRRCPKEVYPHVSTIINICLKYLTYDPNYNYDDEDEDENAMDADGGDDDDQGSDDEYSDDDDMSWKVRRAAAKCLDAVVSTRHEMLPEFYKTVSPALISRFKEREENVKADVFHAYLSLLKQTRPVQSWLCDPDAMEQGETPLTMLQSQVPNIVKALHKQMKEKSVKTRQCCFNMLTELVNVLPGALTQHIPVLVPGIIFSLNDKSSSSNLKIDALSCLYVILCNHSPQVFHPHVQALVPPVVACVGDPFYKITSEALLVTQQLVKVIRPLDQPSSFDATPYIKDLFTCTIKRLKAADIDQEVKERAISCMGQIICNLGDNLGSDLPNTLQIFLERLKNEITRLTTVKALTLIAGSPLKIDLRPVLGEGVPILASFLRKNQRALKLGTLSALDILIKNYSDSLTAAMIDAVLDELPPLISESDMHVSQMAISFLTTLAKVYPSSLSKISGSILNELIGLVRSPLLQGGALSAMLDFFQALVVTGTNNLGYMDLLRMLTGPVYSQSTALTHKQSYYSIAKCVAALTRACPKEGPAVVGQFIQDVKNSRSTDSIRLLALLSLGEVGHHIDLSGQLELKSVILEAFSSPSEEVKSAASYALGSISVGNLPEYLPFVLQEITSQPKRQYLLLHSLKEIISSASVVGLKPYVENIWALLLKHCECAEEGTRNVVAECLGKLTLIDPETLLPRLKGYLISGSSYARSSVVTAVKFTISDHPQPIDPLLKNCIGDFLKTLEDPDLNVRRVALVTFNSAAHNKPSLIRDLLDTVLPHLYNETKVRKELIREVEMGPFKHTVDDGLDIRKAAFECMYTLLDSCLDRLDIFEFLNHVEDGLKDHYDIKMLTFLMLVRLSTLCPSAVLQRLDRLVEPLRATCTTKVKANSVKQEFEKQDELKRSAMRAVAALLTIPEAEKSPLMSEFQSQISSNPELAAIFESIQKDSSSTNLESMDTS
# notes: CAND1, human, endogenous protein of Mutu I and 293T cells; also called TIP120A; source: endogenous, Mutu I lysate; endogenous, 293T lysate
# Target: T1, Cullin 1 (human (endogenous in Mutu I and 293T), UniProt Q13616 1-776)
# T1 construct: Cullin 1, human, endogenous protein of Mutu I and 293T cells; Neddylated and deneddylated forms are seen on blots; also called Cul1; Cul 1; source: endogenous, Mutu I lysate; endogenous, 293T lysate
# T1 sequence (Q13616 whole entry): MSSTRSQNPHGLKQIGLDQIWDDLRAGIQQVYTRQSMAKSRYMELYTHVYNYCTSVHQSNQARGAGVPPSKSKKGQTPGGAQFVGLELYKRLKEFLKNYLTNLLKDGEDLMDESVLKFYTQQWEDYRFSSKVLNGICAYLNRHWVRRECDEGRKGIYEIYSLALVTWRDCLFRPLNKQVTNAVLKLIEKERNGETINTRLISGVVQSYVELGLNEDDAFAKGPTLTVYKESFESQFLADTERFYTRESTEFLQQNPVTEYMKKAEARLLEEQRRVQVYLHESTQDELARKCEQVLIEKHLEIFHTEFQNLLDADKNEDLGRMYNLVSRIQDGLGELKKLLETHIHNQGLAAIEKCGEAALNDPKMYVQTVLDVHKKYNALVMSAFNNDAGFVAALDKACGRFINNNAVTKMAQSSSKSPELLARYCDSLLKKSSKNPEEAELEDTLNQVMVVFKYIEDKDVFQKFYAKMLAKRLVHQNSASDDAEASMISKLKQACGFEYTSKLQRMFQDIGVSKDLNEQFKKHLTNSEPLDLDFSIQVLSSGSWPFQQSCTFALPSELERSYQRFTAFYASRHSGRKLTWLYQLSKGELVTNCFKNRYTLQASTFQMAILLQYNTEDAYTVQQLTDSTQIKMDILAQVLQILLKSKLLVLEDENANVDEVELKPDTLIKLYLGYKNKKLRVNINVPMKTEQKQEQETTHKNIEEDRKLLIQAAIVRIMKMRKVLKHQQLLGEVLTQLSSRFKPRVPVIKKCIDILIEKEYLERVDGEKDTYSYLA
# Assay: co-IP; Mutu I total cell lysates (cells treated with DMSO or C60 for 48 hrs); IP with antibody to Cullin 1, CAND1 or IgG on protein A beads in SDS-free lysis buffer (50 mM Tris-HCl pH 7.6, 120 mM NaCl, 0.1% NP40, 1 mM EDTA), overnight 4°C; Western blot for Cullin 1 or CAND1
# Conditions: partners not purified
binder,measurement,value
B1,fold decrease of the association in C60-treated against DMSO-treated cells,~5 fold
